Publication PMC7831021 (2021)
Bridges are numbered along the chain shown (N, C = ends). Where no end group is shown, it is not given here.

Biological target: beta-2-microglobulin (Homo sapiens, UniProt P61769)
Assay: SPR

Chain of beta-2-microglobulin (P61769 22-119): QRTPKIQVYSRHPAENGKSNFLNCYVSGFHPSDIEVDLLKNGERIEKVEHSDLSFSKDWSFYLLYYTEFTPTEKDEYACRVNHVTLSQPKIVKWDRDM

Kd: 300 µM
Binder: CFETAWRQNEWC (disulfide 1-12 (inferred)) [pep331]
